These results are taken from patent EP4714970A1 (Akeso Biopharma Co., Ltd., dated 2026).

Like-named read-outs stand apart in the source and are kept apart here.

Assay [1] has as its target T1, human LAG3-mG1Fc (human; mouse, UniProt P18627 23-450, limits assumed).
T1 construct: Made by Akeso; also called huLAG3-mG1Fc; HuLAG3-mG1Fc; not shown: mouse IgG1 Fc (mG1Fc); limits not readable
T1 sequence (looked up): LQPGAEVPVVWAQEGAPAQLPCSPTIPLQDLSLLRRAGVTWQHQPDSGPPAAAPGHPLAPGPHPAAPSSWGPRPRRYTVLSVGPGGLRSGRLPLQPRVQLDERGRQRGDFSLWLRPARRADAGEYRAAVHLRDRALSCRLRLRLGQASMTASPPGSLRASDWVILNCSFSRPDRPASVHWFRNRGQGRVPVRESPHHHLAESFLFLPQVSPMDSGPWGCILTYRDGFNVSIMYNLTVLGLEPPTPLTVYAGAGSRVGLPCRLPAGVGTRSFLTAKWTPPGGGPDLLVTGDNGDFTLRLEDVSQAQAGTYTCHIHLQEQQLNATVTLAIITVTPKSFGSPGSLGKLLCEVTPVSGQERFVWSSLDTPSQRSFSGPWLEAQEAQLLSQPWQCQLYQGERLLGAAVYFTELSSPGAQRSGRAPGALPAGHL
As to the kind of experiment: competitive flow cytometry, 3 nM LAG3-mG1Fc on Raji cells (competitor MHC II).

Assay [2] deals with T2, human LAG3 on cell surface (293T-LAG3 cells; Jurkat-NFAT-PD1-LAG3 cells) (human, UniProt P18627 23-525).
T2 construct: whole, on cells; also called huLAG3FL
T2 sequence (looked up): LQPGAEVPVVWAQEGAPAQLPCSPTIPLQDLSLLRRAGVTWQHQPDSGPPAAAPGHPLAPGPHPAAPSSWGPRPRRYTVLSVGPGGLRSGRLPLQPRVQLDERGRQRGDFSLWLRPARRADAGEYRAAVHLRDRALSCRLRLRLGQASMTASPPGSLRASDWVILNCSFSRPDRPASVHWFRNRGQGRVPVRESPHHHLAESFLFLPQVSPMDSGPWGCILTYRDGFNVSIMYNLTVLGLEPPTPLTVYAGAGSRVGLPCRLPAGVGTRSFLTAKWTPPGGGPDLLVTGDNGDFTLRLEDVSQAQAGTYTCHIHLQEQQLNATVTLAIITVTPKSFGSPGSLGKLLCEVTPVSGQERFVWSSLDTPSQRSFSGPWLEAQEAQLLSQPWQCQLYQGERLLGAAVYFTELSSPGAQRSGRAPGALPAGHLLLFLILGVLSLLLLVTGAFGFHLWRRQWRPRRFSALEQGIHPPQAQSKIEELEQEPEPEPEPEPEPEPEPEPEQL
Description: flow cytometry on 293T-LAG3 cells.

Assay [3] deals with T1, human LAG3-mG1Fc. As to the kind of experiment: ELISA, LAG3-mG1Fc coated 2 ug/mL. (In an ELISA, binding on a coated surface is turned into a signal by an enzyme label.)
Assay [4] addresses T2, human LAG3 on cell surface (293T-LAG3 …). As to the kind of experiment: flow cytometry on 293T-LAG3 cells. This is another data set of the same source.
Assay [5] addresses T1, human LAG3-mG1Fc. Description: BLI (Fortebio), antigen on AMC sensor, antibody in solution, 30 C, 1:1 fit. On the technique in general: Biolayer interferometry detects binding as a change in optical thickness at a sensor tip.
In assay [6] the target is T1, human LAG3-mG1Fc. Description: competitive flow cytometry, 3 nM LAG3-mG1Fc on Raji cells (competitor MHC II). The source holds these as a separate data set. In general terms: Flow cytometry measures light scatter and fluorescence of single cells or particles in a stream.
In assay [7] the target is T3, CD73 on U87-MG cell membrane surface (UniProt P21589 27-549, limits assumed).
T3 sequence (looked up): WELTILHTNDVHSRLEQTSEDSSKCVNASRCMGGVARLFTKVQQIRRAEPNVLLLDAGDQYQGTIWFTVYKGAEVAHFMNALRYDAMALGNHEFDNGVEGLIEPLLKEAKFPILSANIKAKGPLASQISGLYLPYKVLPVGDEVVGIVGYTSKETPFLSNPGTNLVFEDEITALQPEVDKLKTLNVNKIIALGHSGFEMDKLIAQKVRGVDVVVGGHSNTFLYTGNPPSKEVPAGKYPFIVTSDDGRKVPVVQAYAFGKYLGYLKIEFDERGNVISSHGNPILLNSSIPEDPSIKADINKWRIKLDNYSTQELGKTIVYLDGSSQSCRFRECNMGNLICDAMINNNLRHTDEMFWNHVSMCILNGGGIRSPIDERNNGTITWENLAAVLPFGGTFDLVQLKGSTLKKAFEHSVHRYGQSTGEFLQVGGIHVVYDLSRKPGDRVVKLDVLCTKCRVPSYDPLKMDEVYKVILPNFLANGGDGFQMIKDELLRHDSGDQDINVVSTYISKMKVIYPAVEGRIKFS
Description: cell-based or functional assay.

Assay [8] has as its target T3, CD73 on U87-MG cell membrane surface. Description: flow cytometry on U87-MG cells.
For assay [9], the target named is T4, hNT5E(1-552)-His (human, UniProt P21589 27-552).
T4 construct: also called NT5E-His; not shown: His tag
T4 sequence (looked up): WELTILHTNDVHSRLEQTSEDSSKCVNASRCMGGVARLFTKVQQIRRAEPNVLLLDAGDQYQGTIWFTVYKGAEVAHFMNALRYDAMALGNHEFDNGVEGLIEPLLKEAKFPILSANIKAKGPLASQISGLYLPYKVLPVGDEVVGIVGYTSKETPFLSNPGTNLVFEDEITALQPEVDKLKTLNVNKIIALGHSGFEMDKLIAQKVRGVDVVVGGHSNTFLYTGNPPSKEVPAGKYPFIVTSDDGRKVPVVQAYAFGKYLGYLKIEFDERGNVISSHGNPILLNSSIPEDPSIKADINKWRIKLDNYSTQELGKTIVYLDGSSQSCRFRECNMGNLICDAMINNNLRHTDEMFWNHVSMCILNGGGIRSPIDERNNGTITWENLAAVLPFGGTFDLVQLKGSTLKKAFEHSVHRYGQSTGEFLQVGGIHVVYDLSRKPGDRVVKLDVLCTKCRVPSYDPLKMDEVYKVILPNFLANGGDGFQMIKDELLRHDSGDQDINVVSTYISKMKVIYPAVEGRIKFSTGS
As to the kind of experiment: ELISA, NT5E-His coated 1 ug/mL.

The target in assay [10] is T4, hNT5E(1-552)-His. Description: ELISA, NT5E-His coated 1 ug/mL. The source holds these as a separate data set.
Assay [11] has as its target T4, hNT5E(1-552)-His. As to the kind of experiment: BLI (Fortebio), antigen on HIS1K sensor, antibody in solution, 37 C, 1:1 fit.
The target in assay [12] is T4, hNT5E(1-552)-His. As to the kind of experiment: ELISA, NT5E-His coated 1 ug/mL. This is another data set of the same source.

B1: H9L8(hG4WT) (antibody, human IgG4 S228P, kappa, V domains shown)
VH: QVQLQQWGAGLLKPSETLSLTCAVYGGSISDYYWNWIRQPPGKGLEWIGEINYRGTTNSNPSLKSRVTLSLDTSKNQFSLKLRSVTAADTAVYYCAFGYSDYEYDWFDPWGQGTLVTVSS
VL: EIVLTQSPATLSLSPGERATLSCRASQTISSYLAWYQQKPGQAPRLLIYDASNRATGIPARFSGSGSGTDFTLTISSLEPEDFAVYYCQQRSNWPITFGQGTNLEIKR
notes: Humanized anti-LAG3 IgG4 (wild type), kappa
The EC50 is the concentration at which the effect is half-maximal. A lower EC50 goes with an effect from little substance. Usually Kd stands for the free concentration of one partner at which half of the binding sites on the other are occupied at equilibrium, for simple one-to-one binding. As usually defined, the koff is the rate constant with which the complex falls apart. As a reminder, the kon is the rate constant with which the complex forms. Read a low kon as slower complex formation. With B1, a half-maximal effect in the assay with human LAG3-mG1Fc [1] (EC50) was put at 1440 pM. In addition, the EC50 in assay [2] stood at 4860 pM. For the same molecule, in the assay with human LAG3-mG1Fc [3], the EC50 stood at 123 pM. Besides, the EC50 in [4] came to 501 pM. In addition, in the assay with human LAG3-mG1Fc [5], binding was characterised by a dissociation constant (Kd) of 300 pM, the “Maximum signal height of analyte (nm)” value worked out at 0.878 nm, the “S E (kdis)” value was found to be 2.94e-06 s⁻¹ and the “S E (kon)” value was found to be 2330 M⁻¹ s⁻¹. Besides, in the assay with human LAG3-mG1Fc [5], the koff was 0.000121 s⁻¹ and the kon came to 405000 M⁻¹ s⁻¹. This molecule also yielded an EC50 in the assay with human LAG3-mG1Fc [6] of 1460 pM.

B2: H9L9(hG4WT) (antibody, human IgG4 S228P, kappa, V domains shown)
VH: QVQLQQWGAGLLKPSETLSLTCAVYGGSISDYYWNWIRQPPGKGLEWIGEINYRGTTNSNPSLKSRVTLSLDTSKNQFSLKLRSVTAADTAVYYCAFGYSDYEYDWFDPWGQGTLVTVSS
VL: EIVLTQSPATLSLSPGERATLSCRASQTISSYLAWYQQKPGQAPRLLIYDGSNRATGIPARFSGSGSGTDFTLTISSLEPEDFAVYYCQQRSNWPLTFGQGTNLEIKR
notes: as for B1
Regarding B2, the EC50 came out at 4520 pM in assay [2], 129 pM with human LAG3-mG1Fc [3] and 1480 pM with human LAG3-mG1Fc [6].

B3: H9L10(hG4WT) (antibody, human IgG4 S228P, kappa, V domains shown)
VH: QVQLQQWGAGLLKPSETLSLTCAVYGGSISDYYWNWIRQPPGKGLEWIGEINYRGTTNSNPSLKSRVTLSLDTSKNQFSLKLRSVTAADTAVYYCAFGYSDYEYDWFDPWGQGTLVTVSS
VL: EIVLTQSPATLSLSPGERATLSCRASQSISSYLAWYQQKPGQAPRLLIYDGSNRATGIPARFSGSGSGTDFTLTISSLEPEDFAVYYCQQRSNWPITFGQGTNLEIKR
notes: Humanized anti-LAG3 IgG4 (wild type), kappa; also called HIL10(hG4WT)
For the molecule B3, the EC50 in [2] came out at 3920 pM; in the assay with human LAG3-mG1Fc [3], 140 pM; with human LAG3-mG1Fc [6], 1440 pM.

B4: MEDI9447 (antibody, V domains shown)
VH: EVQLLESGGGLVQPGGSLRLSCAASGFTFSSYAYSWVRQAPGKGLEWVSAISGSGGRTYYADSVKGRFTISRDNSKNTLYLQMNSLRAEDTAVYYCARLGYGRVDEWGRGTLVTVSS
VL: QSVLTQPPSASGTPGQRVTISCSGSLSNIGRNPVNWYQQLPGTAPKLLIYLDNLRLSGVPDRFSGSKSGTSASLAISGLQSEDEADYYCATWDDSHPGWTFGGGTKLTVL
With B4, in [7], the “EC50 (nM), inhibition of CD73 enzyme activity on U87-MG cells” value is 0.152 nM and the “Maximum inhibition rate (%) of CD73 enzyme activity on U87-MG cells” value is 58.3%.

B5: CPI-006 (antibody, V domains shown)
VH: QVQLVQSGAEVEKPGASVKVSCKASGYTFTSYWITWVRQAPGQGLEWMGDIYPGSGNTNYNEKFKTRVTITADKSTSTAYMELSSLRSEDTAVYYCAKEGGLTTEDYALDYWGQGTLVTVSS
VL: EIVLTQSPATLSLSPGERATLSCRASKNVSTSGYSYMHWYQQKPGQAPRLLIYLASNLESGIPPRFSGSGYGTDFTLTINNIESEDAAYYFCQHSRELPFTFGQGTKVEIKR
B5 came in with an EC50 in assay [8] of 8470 pM.

B6: 19F3H2L3(hG1DM) (antibody, human IgG1, kappa, L234A L235A, V domains shown)
VH: QVQLVQSGAEVVKPGASVKVSCKASGYSFTGYTMNWVRQAPGQNLEWIGLINPYNAGTSYNQKFQGKVTLTVDKSTSTAYMELSSLRSEDTAVYYCARSEYRYGGDYFDYWGQGTTLTVSS
VL: DIVMTQSPSSLAVSVGERVTISCKSSQSLLNSSNQKNYLAWYQQKPGQAPKLLIYFASTRESGVPDRFSGSGSGTDFTLTISSLQAEDVAVYYCQQHYDTPYTFGGGTKLEIKR
notes: Humanized anti-CD73 IgG1 with L234A/L235A
B6: the EC50 is 11 pM with hNT5E(1-552)-His [9], 15 pM with hNT5E(1-552)-His [10], 6060 pM in [8] and 11 pM in the assay with hNT5E(1-552)-His [12]. In the assay with hNT5E(1-552)-His [11], this molecule yielded a Kd of 505 pM. Further, the “Maximum signal height of analyte (nm)” value with hNT5E(1-552)-His [11] was 0.168 nm. Further, the “S E (kdis)” value with hNT5E(1-552)-His [11] came out at 3.54e-06 s⁻¹.
